The supplement of paper PMC10567573

B1: FBF1 (parent)
chain: FGDSPKAEKRQIGDQEGPRPARST
B2: INTS3 (parent)
chain: DLNSKGKKREFRFHPIKETVVEEP

Variants of: B1
Experiment: protein stability index of a GFP-peptide fusion (GPS, HEK-293T) (PSI 1-6); higher = more stable
Conditions: c terminus: a fixed tail appended
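Further: lentivirally expressed fusions sorted by FACS into six bins by GFP to DsRed ratio, PSI derived from sequencing read proportions per bin multiplied by bin number.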

Variant	protein stability index
FGDSPKAEKRQIGDQEGPRPATST [R22T]	4.8
FGDSPKAEKRQIGDQEGPRPALST [R22L]	5.38
FGDSPKAEKRQIGDQEGPRPAKST [R22K]	4.92
FGDSPKAEKRQIGDQEGPRPAQST [R22Q]	5.16
FGDSPKAEKRQIGDQEGPRPAPST [R22P]	5.64
FGDSPKAEKRQIGDQEGPRPAFST [R22F]	4.49
FGDSPKAEKRQIGDQEGPRPAWST [R22W]	3.86
FGDSPKAEKRQIGDQEGPRPAHST [R22H]	4.97
FGDSPKAEKRQIGDQEGPRPAMST [R22M]	5.72
FGDSPKAEKRQIGDQEGPRPANST [R22N]	5.66
FGDSPKAEKRQIGDQEGPRPAIST [R22I]	5.46
FGDSPKAEKRQIGDQEGPRPAGST [R22G]	4.92
FGDSPKAEKRQIGDQEGPRPASST [R22S]	5.4
FGDSPKAEKRQIGDQEGPRPARSN [T24N]	5.34
FGDSPKAEKRQIGDQEGPRPARSC [T24C]	4.96
FGDSPKAEKRQIGDQEGPRPARSW [T24W]	4.34
FGDSPKAEKRQIGDQEGPRPARSY [T24Y]	4.74
FGDSPKAEKRQIGDQEGPRPARSH [T24H]	4.98
FGDSPKAEKRQIGDQEGPRPARSP [T24P]	5.25
FGDSPKAEKRQIGDQEGPRPARSE [T24E]	5.3
FGDSPKAEKRQIGDQEGPRPARSR [T24R]	4.68
FGDSPKAEKRQIGDQEGPRPARSA [T24A]	4.91

Variant	protein stability index
FGDSPKAEKRQIGDQEGPRPARSI [T24I]	4.45
FGDSPKAEKRQIGDQEGPRPARSD [T24D]	4.52
FGDSPKAEKRQIGDQEGPRPARSQ [T24Q]	5.62
FGDSPKAEKRQIGDQEGPRPARSV [T24V]	4.67
FGDSPKAEKRQIGDQEGPRPARSM [T24M]	4.81
FGDSPKAEKRQIGDQEGPRPARSF [T24F]	4.83
FGDSPKAEKRQIGDQEGPRPARCT [S23C]	4.66
FGDSPKAEKRQIGDQEGPRPARVT [S23V]	5
FGDSPKAEKRQIGDQEGPRPARTT [S23T]	5.12
FGDSPKAEKRQIGDQEGPRPARKT [S23K]	4.29
FGDSPKAEKRQIGDQEGPRPARRT [S23R]	4.78
FGDSPKAEKRQIGDQEGPRPARNT [S23N]	5.5
FGDSPKAEKRQIGDQEGPRPARGT [S23G]	5.7
FGDSPKAEKRQIGDQEGPRPARYT [S23Y]	5.37
FGDSPKAEKRQIGDQEGPRPARAT [S23A]	5.25
FGDSPKAEKRQIGDQEGPRPARHT [S23H]	5.53
FGDSPKAEKRQIGDQEGPRPARMT [S23M]	5.01
FGDSPKAEKRQIGDQEGPRPARLT [S23L]	4.98
FGDSPKAEKRQIGDQEGPRPARET [S23E]	5.03
FGDSPKAEKRQIGDQEGPRPARIT [S23I]	4.57
FGDSPKAEKRQIGDQEGPRPARPT [S23P]	4.67
FGDSPKAEKRQIGDQEGPRPARDT [S23D]	5.31

Variants of: B2
Experiment: as above
Conditions: c terminus: a fixed tail appended

Variant	protein stability index
DLNSLGKKREFRFHPIKETVVEEP [K5L]	2.07
DLNSNGKKREFRFHPIKETVVEEP [K5N]	2.56
DLNSYGKKREFRFHPIKETVVEEP [K5Y]	2.26
DLNSGGKKREFRFHPIKETVVEEP [K5G]	2.54
DLNSEGKKREFRFHPIKETVVEEP [K5E]	2.88
DLNSIGKKREFRFHPIKETVVEEP [K5I]	2.32
DLNSSGKKREFRFHPIKETVVEEP [K5S]	2.35
DLNSMGKKREFRFHPIKETVVEEP [K5M]	2.05
DLNSVGKKREFRFHPIKETVVEEP [K5V]	2.76
DLNSAGKKREFRFHPIKETVVEEP [K5A]	2.43
DLNSQGKKREFRFHPIKETVVEEP [K5Q]	2.44
DLNSPGKKREFRFHPIKETVVEEP [K5P]	2.69
DLNSFGKKREFRFHPIKETVVEEP [K5F]	1.88
DLNSCGKKREFRFHPIKETVVEEP [K5C]	2.05
DLNSRGKKREFRFHPIKETVVEEP [K5R]	2.25
DLNSWGKKREFRFHPIKETVVEEP [K5W]	2.32
DLNSHGKKREFRFHPIKETVVEEP [K5H]	2.48
DLNSDGKKREFRFHPIKETVVEEP [K5D]	3.04
DLNSTGKKREFRFHPIKETVVEEP [K5T]	2.39
DLNSKFKKREFRFHPIKETVVEEP [G6F]	1.74
DLNSKRKKREFRFHPIKETVVEEP [G6R]	1.33
DLNSKYKKREFRFHPIKETVVEEP [G6Y]	1.95
DLNSKVKKREFRFHPIKETVVEEP [G6V]	2.56
DLNSKPKKREFRFHPIKETVVEEP [G6P]	2.42
DLNSKTKKREFRFHPIKETVVEEP [G6T]	2.38

Variant	protein stability index
DLNSKDKKREFRFHPIKETVVEEP [G6D]	2.29
DLNSKNKKREFRFHPIKETVVEEP [G6N]	2.37
DLNSKIKKREFRFHPIKETVVEEP [G6I]	1.59
DLNSKHKKREFRFHPIKETVVEEP [G6H]	2.74
DLNSKCKKREFRFHPIKETVVEEP [G6C]	2.23
DLNSKEKKREFRFHPIKETVVEEP [G6E]	2.25
DLNSKWKKREFRFHPIKETVVEEP [G6W]	2.12
DLNSKKKKREFRFHPIKETVVEEP [G6K]	1.74
DLNSKSKKREFRFHPIKETVVEEP [G6S]	2.03
DLNSKMKKREFRFHPIKETVVEEP [G6M]	2.4
DLNSKQKKREFRFHPIKETVVEEP [G6Q]	2.3
DLNSKAKKREFRFHPIKETVVEEP [G6A]	2.02
DLNSKLKKREFRFHPIKETVVEEP [G6L]	1.52
NLNSKGKKREFRFHPIKETVVEEP [D1N]	1.56
GLNSKGKKREFRFHPIKETVVEEP [D1G]	2.23
ELNSKGKKREFRFHPIKETVVEEP [D1E]	2.43
VLNSKGKKREFRFHPIKETVVEEP [D1V]	2.47
CLNSKGKKREFRFHPIKETVVEEP [D1C]	2.26
TLNSKGKKREFRFHPIKETVVEEP [D1T]	1.52
YLNSKGKKREFRFHPIKETVVEEP [D1Y]	1.67
LLNSKGKKREFRFHPIKETVVEEP [D1L]	2.23
ALNSKGKKREFRFHPIKETVVEEP [D1A]	2.01
MLNSKGKKREFRFHPIKETVVEEP [D1M]	1.86
HLNSKGKKREFRFHPIKETVVEEP [D1H]	2.83
QLNSKGKKREFRFHPIKETVVEEP [D1Q]	2.02
